This is an account of results in patent publication US20250320284A1 (AC IMMUNE, published 2025).

The target in assay [1] is T1, human ASC (apoptosis associated speck-like protein containing a caspase-recruitment domain) (human, UniProt Q9ULZ3 1-195).
T1 construct: recombinant hASC in ELISA and SPR; endogenous ASC (cytoplasmic or specks) in Western blot and immunofluorescence; also called hASC; PYCARD
Put plainly: SPR avidity mode, ASC immobilized.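 Further: Single-cycle SPR kinetics on Biacore T200, antibodies injected at 1.2–100 nM (3-fold steps), 300 s association, 900 s dissociation, double-referenced, 1:1 kinetic model fit.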

Assay [2] deals with T2, PYD domain of human ASC (human, UniProt Q9ULZ3 1-91, limits assumed).
T2 construct: biotinylated in BLI; His/MBP-tagged in the alanine ELISA; also called hPYD; human PYD
Put plainly: ELISA, coated hPYD.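 Further: monoclonal antibody binding to plate-coated human ASC PYD measured by ELISA, with a phosphatase substrate absorbance read-out and EC50 from a variable slope curve fit.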

Assay [3] addresses T3, mouse ASC (mouse, UniProt Q9EPB4 1-193).
T3 construct: recombinant mASC in ELISA and SPR; endogenous ASC of J774.A1 cells in Western blot and immunofluorescence; also called mASC
T3 sequence: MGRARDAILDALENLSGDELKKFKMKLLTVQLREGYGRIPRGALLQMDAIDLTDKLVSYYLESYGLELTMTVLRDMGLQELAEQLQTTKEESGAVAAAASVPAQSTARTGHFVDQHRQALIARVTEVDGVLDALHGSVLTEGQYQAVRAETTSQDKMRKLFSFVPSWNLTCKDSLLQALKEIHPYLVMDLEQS
In words: ELISA, coated mASC. (An ELISA detects its analyte on a solid surface through an enzyme-linked reagent.)

In assay [4] the target is T4, CARD domain of human ASC (human, UniProt Q9ULZ3 107-195).
T4 construct: biotinylated in BLI; also called hCARD; human CARD
T4 sequence: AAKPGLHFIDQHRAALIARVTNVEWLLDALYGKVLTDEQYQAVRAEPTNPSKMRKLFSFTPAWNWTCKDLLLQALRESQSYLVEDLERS
Put plainly: ELISA, coated hCARD.

In assay [5] the target is T1, human ASC (apoptosis associated …). In words: ELISA, coated hASC.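 Further: antibody binding to plate-coated recombinant human ASC, read as phosphatase substrate absorbance, EC50 from four-parameter variable-slope fit.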
Assay [6] shares this target. In words: SPR affinity mode, mAb captured.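 Further: Single-cycle SPR kinetics with mAbs captured on goat anti-mouse antibody, double-referenced against blank flow cell and buffer cycle, fitted by a 1:1 kinetic model.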
Assay [7] shares this target. Put plainly: cell-based or functional assay.
Assay [8] deals with T4, CARD domain of human ASC. Put plainly: BLI binning on CARD, competitor 2609F4A9-Ab1.
Assay [9] concerns the target T4, CARD domain of human ASC. Put plainly: BLI binning on CARD, competitor 32B6C7-Ab1.
The target in assay [10] is T4, CARD domain of human ASC. In words: BLI binning on CARD, competitor 2629E8D1-Ab1.
The target of assay [11] is T4, CARD domain of human ASC. In words: BLI binning on CARD, competitor 2504F3D9-Ab1.
Assay [12] deals with T4, CARD domain of human ASC. In words: BLI binning on CARD, competitor 2622E12F11-Ab1.
For assay [13], the target named is T4, CARD domain of human ASC. Put plainly: BLI binning on CARD, competitor 18F4C12-Ab1.
In assay [14] the target is T2, PYD domain of human ASC. In words: BLI binning on PYD, competitor 22D3A6-AB1.
Assay [15] concerns the target T2, PYD domain of human ASC. Put plainly: BLI binning on PYD, competitor 26A1G2-AB1.
In assay [16] the target is T3, mouse ASC. Put plainly: cell-based or functional assay.
Assay [17] has as its target T2, PYD domain of human ASC. In words: BLI binning on PYD, competitor 23E5F7-AB2.
Assay [18] has as its target T2, PYD domain of human ASC. In words: BLI binning on PYD, competitor 416E6G4-AB1.
In assay [19] the target is T2, PYD domain of human ASC. In words: BLI binning on PYD, competitor 31F10C5-AB1.
In assay [20] the target is T2, PYD domain of human ASC. Put plainly: BLI binning on PYD, competitor 401H9B7-AB1.
In assay [21] the target is T2, PYD domain of human ASC. In words: BLI binning on PYD, competitor 2617C3A8-AB1.
Assay [22] has as its target T2, PYD domain of human ASC. In words: BLI binning on PYD, competitor 2610H7D3-AB1.
Assay [23] deals with T2, PYD domain of human ASC. In words: BLI binning on PYD, competitor 2626B9D3-AB1.
Assay [24] has as its target T1, human ASC (apoptosis associated …). Put plainly: cell-based or functional assay. The source holds these as a separate data set.
The target of assay [25] is T3, mouse ASC. In words: cell-based or functional assay. The source holds these as a separate data set.
Assay [26] deals with T3, mouse ASC. Put plainly: SPR affinity mode, mAb captured.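 Further: Single-cycle SPR kinetics with mAbs captured on goat anti-mouse antibody, double-referenced against blank flow cell and buffer cycle, fitted by a 1:1 kinetic model.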
In assay [27] the target is T3, mouse ASC. Put plainly: ELISA, coated mASC; ELISA on mASC protein.
Assay [28] has as its target T3, mouse ASC. In words: SPR affinity mode, steady-state fit, apparent KD; SPR affinity mode, mAb captured, mASC in solution; steady-state fit, apparent KD.

T2 sequence (Q9ULZ3 1-91 limits assumed): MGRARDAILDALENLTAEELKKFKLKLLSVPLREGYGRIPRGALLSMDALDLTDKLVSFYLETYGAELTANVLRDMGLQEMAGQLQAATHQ

B1: ACI-8016-203G8B10-AB1 (antibody, V domains shown)
VH: EVKLEESGGGLVHPGGSMKLSCVASGFTFSNYWMNWVRQSPEKGLEWVAQIRLKSENYATHSAESVKGRLTISRDDSKSSVYLQMNNLRAEDTGIYYCLAGWGLDYWGQGTTLTVSS
VL: DIVMTQAAFSNPVTLGTSASISCRSSKTLLHSDGFTYLYWYLQRPGQSPQLLIHRVSNLASGVPNRFSGSESGTDFTLRISRVEPEDVGVYYCAQMLELPLTFGSGTKLELK
For B1, the Kd in assay [1] was determined as 350 pM; in assay [6], 1340 pM. The koff was found to be 2.9e-05 s⁻¹ in assay [1] and 0.00017 s⁻¹ in [6]. Moreover, the kon in assay [1] stood at 83000 M⁻¹ s⁻¹; in [6], 130000 M⁻¹ s⁻¹. For the same molecule, the EC50 with PYD domain of human ASC [2] worked out at 80 pM; in assay [5], 90 pM. The binding result with mouse ASC [3] and in the assay with CARD domain of human ASC [4] was “no binding” each time.

B2: ACI-8016-2504F3D9-AB1 (antibody, V domains shown)
VH: DVKLVESGEGLVKPGGSLKLSCAVSGFTFSNYAMSWVRQTPEKRLEWVAYISSGGDFIYYRDTVKGRFTISRDNARNTLYLQMSSLKSEDTAMYYCILQLRPEAWFAYWGQGTLVTVSA
VL: DIKMTQSPSSMYASLGERVTITCKASQDIKNYLSWFQQIPGKSPKTLIYRANRLVDGVPSRFSGSGSGQDYSLTISSLEYEDMGIYYCLQYYEFPYTFGGGTKLEIK
For B2, the “IL-1β release, human monocytic cell line, IC50” value in [7] turned out to be 16700 pM. For the same molecule, the normalized binding response with CARD domain of human ASC [8] amounted to 17%; in the assay with CARD domain of human ASC [9], 21%; with CARD domain of human ASC [10] it was 20%; with CARD domain of human ASC [11], 0%; with CARD domain of human ASC [12], 19%; in the assay with CARD domain of human ASC [13] it was 76%. Moreover, the binding result with PYD domain of human ASC [2] was “no binding”. Also, the EC50 with CARD domain of human ASC [4] came to 130 pM; in assay [5], 190 pM. This molecule gave a Kd in assay [6] of 8300 pM. For the same molecule, the koff in assay [6] amounted to 0.000723 s⁻¹. The same molecule came in with a kon in assay [6] of 89300 M⁻¹ s⁻¹.

B3: ACI-8016-402H11C9-Ab1 (antibody, V domains shown)
VH: QVQLQQSGAELARPGASVKMSCKASGYTFTTYTMHWVKQRPGQGLEWIGYINPSSGYTYYNQNFKDKATLTADKSSSTAYMQLSNLASDDSAVYYCALGGNPAWFAYWGQGTLVTVSA
VL: DIVLTQSPATLSVTPGDSVSLSCRASQSIGNNLHWYQHKSHESPRLLIKYASQSISGIPSRFSGSESGTDFTLSINSVETEDFGIYFCQQSKSWPWTFGGGTKLEIK
On to B3, for which the Kd in [1] is 10500 pM; in assay [6], 550 pM. For the same molecule, the binding result with PYD domain of human ASC [2] and with mouse ASC [3] was “no binding” in each case. The EC50 (with CARD domain of human ASC [4]; in assay [5]) was 60 pM each time. The molecule further displayed a koff in [6] of 0.00019 s⁻¹. For the same molecule, the kon in assay [6] turned out to be 360000 M⁻¹ s⁻¹.

B4: ACI-8016-407E10A9-AB1 (antibody, V domains shown)
VH: EVQLVESGGGFVKPGGSLKLSCAASGFTFSNYAMSWVRQTPEKRLEWVATIYSGGIFTYYPDSVKGRFTISRDSAKNTLYLQMTSLRSEDTAIYYCARLGGSYWGQGTLVTVSA
VL: QAVVTQESALTTSPGETVTLTCRSSTGAVTTNNYANWVQEKPDHFFTGLIGGTDNRPPGVPARFSGSLIGDKAALTITGAQTEDEAIYFCALWYNNHWVFGGGTKLTVL
Take B4: the Kd was under 10 pM in [1] and 110 pM in assay [6]. Also, the koff in assay [1] came out at 5.6e-07 s⁻¹; in assay [6] it was 1.5e-05 s⁻¹. The association rate constant (kon) amounted to 110000 M⁻¹ s⁻¹ in assay [1] and 130000 M⁻¹ s⁻¹ in [6]. Further, the binding result with PYD domain of human ASC [2] and with mouse ASC [3] was “no binding” each time. For the same molecule, the half-maximal effective concentration (EC50) with CARD domain of human ASC [4] was 70 pM; in assay [5], 60 pM.

B5: ACI-8016-31F10C5-AB1 (antibody, V domains shown)
VH: QVQLQQSEPELARPGASVKLSCTASGYTFINYGVSWVRQRTGQGLEWIGRIYPRSGNTRFNEKFQGKATLTADTSSSTAYMELRSLTSEDSAVYFCTRFPYAFSGNSYWYFDVWGTGTTVTVSS
VL: DIVMTQSHKFMSTSIGDRVSITCKASQDVSAAVAWYQQKPGQSPKLLIYSSSFRYTGVPDRFTGSASGTDFTFTITTVQAEDLAVYYCQQHFDTPYTFGGGTKLEIK
notes: also called 936.31F10C5
For B5, the normalized binding response was 3% with PYD domain of human ASC [14]; 0% with PYD domain of human ASC [15]; 2% in the assay with PYD domain of human ASC [17]; 4% in the assay with PYD domain of human ASC [18]; 1% with PYD domain of human ASC [19]; 79% with PYD domain of human ASC [20]. For the same molecule, the normalized binding response with PYD domain of human ASC [21] came out at 3%; with PYD domain of human ASC [22] it was 2%; in the assay with PYD domain of human ASC [23], 49%. For the same molecule, the “IL-1β release, human monocytic cell line, IC50” value in assay [7] is 33000 pM. Besides, the EC50 was 180 pM with PYD domain of human ASC [2], 300 pM in the assay with mouse ASC [3] and 240 pM in [5]. Further, the “% IL-1β inhibition, mouse primary microglia, 420 nM mAb” value with mouse ASC [16] is 90.5%. Moreover, the binding result with CARD domain of human ASC [4] was “no binding”. In addition, the “Human ASC polymerization assay, IC50” value in assay [24] amounted to 6300 pM. Besides, the “Mouse ASC polymerization assay, IC50” value with mouse ASC [25] was 34800 pM. The Kd in [6] worked out at 160 pM; with mouse ASC [26], 360 pM. Further, the koff in assay [6] worked out at 0.000199 s⁻¹; with mouse ASC [26] it was 0.000314 s⁻¹. Moreover, the results for the kon (in assay [6]; in the assay with mouse ASC [26]) were 1.23e+06 M⁻¹ s⁻¹ and 886000 M⁻¹ s⁻¹, respectively.

B6: ACI-8016-2626B9D3-AB1 (antibody, V domains shown)
VH: QVQLQQPGTELVKPGASVKLSCRASGWTHWVKQRPGQGLEWIGNINLSNGRTNYNEKFRAMATLTVDKSSSTAYTQLSSLTSEDSAVYYCANSMVPHFFPMDYWGQGTSVTVSS
VL: NIVMTQYPKSMSLSIGERVTLRCKASENVGSYVSWYQQKPEQSPKLLIYGASNRYTGVPDRFTGSGSATDFILTITSVQAEDLADYHCGQSYNYPLTFGAGTKLELK
Take B6: the “% IL-1β inhibition, mouse primary microglia, 420 nM mAb” value with mouse ASC [16] came out at 52%. Further, the response with mouse ASC [27] was half-maximal at 380 pM (EC50). Besides, in the assay with mouse ASC [25], the “Mouse ASC polymerization assay, IC50” value amounted to 27300 pM. In addition, the Kd with mouse ASC [28] was 34400 pM.

Usually koff stands for the first-order rate constant of dissociation. Low values mean slow dissociation, high ones fast dissociation. The term kon denotes the rate constant with which the complex forms. The term EC50 denotes the concentration that produces a half-maximal response.
